# Reference: patent US20230121433A1
# Legend:
# Experiment in all cases: cell-based or functional assay
# CSR 2DH.2TF2z WT = target: CSR 2DH.2TF2z WT
# CSR 82DH.TF2z = target: CSR 82DH.TF2z
# CSR 01 CD2.DH.z = target: CSR 01 CD2.DH.z
# CSR 2DH.TF2z = target: CSR 2DH.TF2z
# CSR 82DH.2TF2z WT = target: CSR 82DH.2TF2z WT
# Sequence of CSR 82DH.2TF2z WT (chain, as listed by the source): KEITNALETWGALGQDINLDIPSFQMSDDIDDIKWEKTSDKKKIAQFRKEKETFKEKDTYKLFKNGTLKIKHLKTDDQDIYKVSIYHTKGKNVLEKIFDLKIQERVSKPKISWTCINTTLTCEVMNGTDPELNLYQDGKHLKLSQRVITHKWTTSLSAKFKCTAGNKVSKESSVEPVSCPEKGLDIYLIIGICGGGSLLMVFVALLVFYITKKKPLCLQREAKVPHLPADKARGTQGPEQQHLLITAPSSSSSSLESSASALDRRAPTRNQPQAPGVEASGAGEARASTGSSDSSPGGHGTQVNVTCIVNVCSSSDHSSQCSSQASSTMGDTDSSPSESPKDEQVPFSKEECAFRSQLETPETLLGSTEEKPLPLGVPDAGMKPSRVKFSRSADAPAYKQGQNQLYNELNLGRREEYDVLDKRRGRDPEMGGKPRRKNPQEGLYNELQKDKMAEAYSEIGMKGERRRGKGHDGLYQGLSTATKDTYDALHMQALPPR
# Sequence of CSR 2DH.TF2z (chain, as listed by the source): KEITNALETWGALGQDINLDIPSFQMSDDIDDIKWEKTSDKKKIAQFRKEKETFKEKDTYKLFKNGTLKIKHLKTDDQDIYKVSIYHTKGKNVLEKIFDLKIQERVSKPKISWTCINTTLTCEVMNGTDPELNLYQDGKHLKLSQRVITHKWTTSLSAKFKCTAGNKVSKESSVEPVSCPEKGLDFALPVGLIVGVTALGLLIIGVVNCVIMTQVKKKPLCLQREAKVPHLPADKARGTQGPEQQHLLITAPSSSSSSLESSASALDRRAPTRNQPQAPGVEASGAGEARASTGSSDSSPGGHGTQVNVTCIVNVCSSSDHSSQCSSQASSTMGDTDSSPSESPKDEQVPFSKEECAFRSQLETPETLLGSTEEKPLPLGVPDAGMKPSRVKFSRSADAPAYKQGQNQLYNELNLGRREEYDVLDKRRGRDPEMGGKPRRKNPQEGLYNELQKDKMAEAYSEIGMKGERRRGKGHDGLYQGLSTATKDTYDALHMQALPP
# Sequence of CSR 82DH.TF2z (chain, as listed by the source): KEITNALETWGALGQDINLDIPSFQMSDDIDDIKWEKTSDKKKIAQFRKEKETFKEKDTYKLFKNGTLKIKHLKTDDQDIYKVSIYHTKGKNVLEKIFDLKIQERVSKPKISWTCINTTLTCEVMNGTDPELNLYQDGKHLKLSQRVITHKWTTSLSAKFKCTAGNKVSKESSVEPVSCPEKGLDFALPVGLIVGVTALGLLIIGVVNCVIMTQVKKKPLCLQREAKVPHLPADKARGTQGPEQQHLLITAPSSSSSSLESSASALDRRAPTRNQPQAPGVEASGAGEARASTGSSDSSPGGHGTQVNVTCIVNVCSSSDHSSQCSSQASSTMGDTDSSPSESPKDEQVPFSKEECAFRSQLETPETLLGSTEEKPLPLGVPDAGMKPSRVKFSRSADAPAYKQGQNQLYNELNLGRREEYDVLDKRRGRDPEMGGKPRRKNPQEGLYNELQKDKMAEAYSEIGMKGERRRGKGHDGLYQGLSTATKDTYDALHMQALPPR
# Sequence of CSR 01 CD2.DH.z (chain, as listed by the source): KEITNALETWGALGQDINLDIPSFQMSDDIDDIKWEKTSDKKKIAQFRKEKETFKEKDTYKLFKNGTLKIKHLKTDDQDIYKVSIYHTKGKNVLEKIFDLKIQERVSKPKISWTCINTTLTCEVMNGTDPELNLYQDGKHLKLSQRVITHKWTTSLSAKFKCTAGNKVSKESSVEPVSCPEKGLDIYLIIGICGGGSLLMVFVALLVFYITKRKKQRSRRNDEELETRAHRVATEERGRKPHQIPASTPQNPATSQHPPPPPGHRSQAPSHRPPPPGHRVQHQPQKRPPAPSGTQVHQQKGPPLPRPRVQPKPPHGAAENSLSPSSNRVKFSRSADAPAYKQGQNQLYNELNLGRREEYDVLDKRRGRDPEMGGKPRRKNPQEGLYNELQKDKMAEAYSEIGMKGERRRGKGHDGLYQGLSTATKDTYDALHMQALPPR
# Sequence of CSR 2DH.2TF2z WT (chain, as listed by the source): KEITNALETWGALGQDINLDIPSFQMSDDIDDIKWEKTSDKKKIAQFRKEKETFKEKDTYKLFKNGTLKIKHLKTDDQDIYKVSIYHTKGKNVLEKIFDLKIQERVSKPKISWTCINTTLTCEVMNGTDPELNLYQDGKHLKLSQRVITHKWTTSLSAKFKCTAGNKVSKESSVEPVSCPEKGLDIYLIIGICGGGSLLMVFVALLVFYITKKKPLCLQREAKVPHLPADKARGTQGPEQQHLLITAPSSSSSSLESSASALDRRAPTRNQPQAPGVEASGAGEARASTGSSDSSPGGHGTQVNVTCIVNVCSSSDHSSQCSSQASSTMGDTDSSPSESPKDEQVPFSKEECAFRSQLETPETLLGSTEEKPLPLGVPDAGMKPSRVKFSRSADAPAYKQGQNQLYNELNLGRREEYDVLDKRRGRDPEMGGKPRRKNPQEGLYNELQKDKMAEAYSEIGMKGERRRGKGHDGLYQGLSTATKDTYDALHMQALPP
substance,measurement,setting,value
Immunocult Human CD2 T cell activator (StemCell Technologies),"pSTAT5 Expression post activation in Treg cells (% of live cells), +16 hours, Donor 4",CSR 2DH.2TF2z WT,13.9%
same,"pSTAT5 Expression post activation in Treg cells (% of live cells), +16 hours, Donor 5 (% of live cells)",CSR 2DH.2TF2z WT,10.3
same,"pSTAT5 Expression post activation in Treg cells (% of live cells), +24 hours, Donor 4 (% of live cells)",CSR 2DH.2TF2z WT,15.8
same,"pSTAT5 Expression post activation in Treg cells (% of live cells), +24 hours, Donor 5 (% of live cells)",CSR 2DH.2TF2z WT,13.5
same,"pSTAT5 Expression post activation in pan T cells (% of live cells), +4 hours, Donor 1",CSR 2DH.2TF2z WT,4.73%
same,"pSTAT5 Expression post activation in pan T cells (% of live cells), +4 hours, Donor 2 (% of live cells)",CSR 2DH.2TF2z WT,2.78
same,"pSTAT5 Expression post activation in pan T cells (% of live cells), +24 hours, Donor 1 (% of live cells)",CSR 2DH.2TF2z WT,8.34
same,"pSTAT5 Expression post activation in pan T cells (% of live cells), +24 hours, Donor 2 (% of live cells)",CSR 2DH.2TF2z WT,15.8
same,"pSTAT5 Expression post activation in Treg cells (% of live cells), +16 hours, Donor 4 (% of live cells)",CSR 82DH.TF2z,10.5
same,"pSTAT5 Expression post activation in Treg cells (% of live cells), +24 hours, Donor 4 (% of live cells)",CSR 82DH.TF2z,11.6
same,"pSTAT5 Expression post activation in pan T cells (% of live cells), +4 hours, Donor 1 (% of live cells)",CSR 82DH.TF2z,5.49
same,"pSTAT5 Expression post activation in pan T cells (% of live cells), +4 hours, Donor 2 (% of live cells)",CSR 82DH.TF2z,5.09
same,"pSTAT5 Expression post activation in pan T cells (% of live cells), +24 hours, Donor 1 (% of live cells)",CSR 82DH.TF2z,6.16
same,"pSTAT5 Expression post activation in pan T cells (% of live cells), +24 hours, Donor 2 (% of live cells)",CSR 82DH.TF2z,10.1
same,"pSTAT5 Expression post activation in Treg cells (% of live cells), +16 hours, Donor 4",CSR 01 CD2.DH.z,7.1%
same,"pSTAT5 Expression post activation in Treg cells (% of live cells), +16 hours, Donor 5",CSR 01 CD2.DH.z,10.3%
same,"pSTAT5 Expression post activation in Treg cells (% of live cells), +24 hours, Donor 4",CSR 01 CD2.DH.z,10.5%
same,"pSTAT5 Expression post activation in Treg cells (% of live cells), +24 hours, Donor 5",CSR 01 CD2.DH.z,11.1%
same,"pSTAT5 Expression post activation in pan T cells (% of live cells), +4 hours, Donor 1 (% of live cells)",CSR 01 CD2.DH.z,3.52
same,"pSTAT5 Expression post activation in pan T cells (% of live cells), +4 hours, Donor 2 (% of live cells)",CSR 01 CD2.DH.z,41.1
same,"pSTAT5 Expression post activation in pan T cells (% of live cells), +24 hours, Donor 1 (% of live cells)",CSR 01 CD2.DH.z,17.7
same,"pSTAT5 Expression post activation in pan T cells (% of live cells), +24 hours, Donor 2",CSR 01 CD2.DH.z,47.9%
same,"pSTAT5 Expression post activation in Treg cells (% of live cells), +16 hours, Donor 4 (% of live cells)",CSR 2DH.TF2z,9.24
same,"pSTAT5 Expression post activation in Treg cells (% of live cells), +24 hours, Donor 4 (% of live cells)",CSR 2DH.TF2z,8.64
same,"pSTAT5 Expression post activation in pan T cells (% of live cells), +4 hours, Donor 1 (% of live cells)",CSR 2DH.TF2z,5.43
same,"pSTAT5 Expression post activation in pan T cells (% of live cells), +4 hours, Donor 2",CSR 2DH.TF2z,4.2%
same,"pSTAT5 Expression post activation in pan T cells (% of live cells), +24 hours, Donor 1",CSR 2DH.TF2z,5.67%
same,"pSTAT5 Expression post activation in pan T cells (% of live cells), +24 hours, Donor 2",CSR 2DH.TF2z,5.17%
same,"pSTAT5 Expression post activation in Treg cells (% of live cells), +16 hours, Donor 4",CSR 82DH.2TF2z WT,13.3%
same,"pSTAT5 Expression post activation in Treg cells (% of live cells), +16 hours, Donor 5 (% of live cells)",CSR 82DH.2TF2z WT,7.45
same,"pSTAT5 Expression post activation in Treg cells (% of live cells), +24 hours, Donor 4",CSR 82DH.2TF2z WT,13.6%
same,"pSTAT5 Expression post activation in Treg cells (% of live cells), +24 hours, Donor 5",CSR 82DH.2TF2z WT,9.16%
same,"pSTAT5 Expression post activation in pan T cells (% of live cells), +4 hours, Donor 1",CSR 82DH.2TF2z WT,3.24%
same,"pSTAT5 Expression post activation in pan T cells (% of live cells), +4 hours, Donor 2 (% of live cells)",CSR 82DH.2TF2z WT,11
same,"pSTAT5 Expression post activation in pan T cells (% of live cells), +24 hours, Donor 1 (% of live cells)",CSR 82DH.2TF2z WT,5.5
same,"pSTAT5 Expression post activation in pan T cells (% of live cells), +24 hours, Donor 2",CSR 82DH.2TF2z WT,6.36%
